# The supplement of paper PMC7877785
# ± gives the uncertainty stated by the source.
# Assay: self-splicing fitness, log relative to wild type (ln ratio); higher = more splicing; Tetrahymena group I intron in knt gene, E. coli kanamycin selection, DiMSum; sequences stand for … in CUCUCU…GGAGGGAAAAGUUAUCAGGCAUGCACCUGGUAGCUAGUCUUUAAACCAAUAGAUUGCAUCGGUUUAAAAGGCAAGACCGUCAAAUUGCGGGAAAGGGGUCAACAGCCGUUCAGUACCAAGUCUCAGGGGAAACUUUGAGAUGGCCUUGCAAAGGGUAUGGUAAUAAGCUGACGGACAUGGUCCUAACCACGCAGCCAAGUCCUAAGUCAACAGAUCUUCUGUUGAUAUGGAUGCAGUUCACAGACUAAAUGUCGGUCGGGGAAGAUGUAUUCUUCUCAUAAGAUAUAGUCGGACCUCUCCUUAAUGGGAGCUAGCGGAUGAAGUGAUGCAACACUGGAGCCGCUGGGAACUAAUUUGUAUGCGAAAGUAUAUUGAUUAGUUUUGGAGUACUCGUGGUCG
# In short: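 A randomised library covering all eight P1ex-region intron nucleotides was built with the intron in the knt kanamycin-resistance gene on pET-22b(+) and held in E. coli BL21(DE3). Cells were grown overnight at 37°C or 30°C on LB agar, with or without 25 μg/mL kanamycin, plus 100 μg/mL carbenicillin, 50 μM IPTG and 0.2% rhamnose, and pooled colonies were amplicon-sequenced on an Illumina HiSeq 2500. DiMSum fitness is the error-weighted combination of wild-type-normalised replicate fold changes, kanamycin versus none.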
Sequence,self-splicing fitness (ln) (30 °C),self-splicing fitness (ln) (37 °C)
AAAUAGCAAUAUUACGAGAG,-4.01 ± 0.3,-2.49 ± 0.28
AAAUAGCAAUAUUACGAGAU,-2.1 ± 0.16,-1.47 ± 0.21
AAAUAGCAAUAUUACGAGGG,-3.73 ± 0.19,-3.61 ± 0.22
AAAUAGCAAUAUUACGAGGU,-2.99 ± 0.26,-1.28 ± 0.19
AAAUAGCAAUAUUACGAUCC,-0.358 ± 0.14,-0.695 ± 0.17
AAAUAGCAAUAUUACGAUCG,-0.864 ± 0.091,-0.18 ± 0.11
AAAUAGCAAUAUUACGAUGA,-0.773 ± 0.096,-0.0131 ± 0.11
AAAUAGCAAUAUUACGCCCU,0.528 ± 0.16,0.336 ± 0.21
AAAUAGCAAUAUUACGCGCC,-0.57 ± 0.13,-0.337 ± 0.15
AAAUAGCAAUAUUACGCUAU,-2.9 ± 0.18,-2.22 ± 0.34
AAAUAGCAAUAUUACGCUUU,-2.63 ± 0.15,-1.09 ± 0.12
AAAUAGCAAUAUUACGGACA,-1.08 ± 0.12,-0.512 ± 0.13
AAAUAGCAAUAUUACGGCUA,-0.705 ± 0.12,-0.0895 ± 0.13
AAAUAGCAAUAUUACGGGCA,-1.22 ± 0.11,-0.312 ± 0.14
AAAUAGCAAUAUUACGGGGG,-2.94 ± 0.36,-2.11 ± 0.31
AAAUAGCAAUAUUACGGGUC,-3.56 ± 0.17,-3.1 ± 0.24
AAAUAGCAAUAUUACGGGUU,-1.92 ± 0.14,-0.924 ± 0.2
AAAUAGCAAUAUUACGGUAU,-1.69 ± 0.1,-0.496 ± 0.12
AAAUAGCAAUAUUACGGUCU,0.108 ± 0.076,-0.388 ± 0.084
AAAUAGCAAUAUUACGUAAC,-2.1 ± 0.2,-0.398 ± 0.2
AAAUAGCAAUAUUACGUCGA,-1.78 ± 0.078,-0.255 ± 0.076
AAAUAGCAAUAUUACGUUAC,-3.44 ± 0.22,-2.77 ± 0.27
AACAAGCAAUAUUACGAAAG,-2.14 ± 0.14,-2.73 ± 0.22
AACAAGCAAUAUUACGAAUC,-3.22 ± 0.17,-2.24 ± 0.13
AACAAGCAAUAUUACGACAC,-1.66 ± 0.085,-0.431 ± 0.097

Sequence,self-splicing fitness (ln) (30 °C),self-splicing fitness (ln) (37 °C)
AACAAGCAAUAUUACGACCA,-0.617 ± 0.086,-0.382 ± 0.12
AACAAGCAAUAUUACGAGCU,-0.919 ± 0.056,-0.357 ± 0.073
AACAAGCAAUAUUACGAUUU,0.129 ± 0.056,0.672 ± 0.077
AACAAGCAAUAUUACGCGAA,-1.78 ± 0.073,-0.546 ± 0.084
AACAAGCAAUAUUACGCUAC,–,-3.21 ± 0.4
AACAAGCAAUAUUACGCUCA,-0.608 ± 0.054,-0.27 ± 0.071
AACAAGCAAUAUUACGGCGU,-0.173 ± 0.063,0.163 ± 0.071
AACAAGCAAUAUUACGGGGA,-3.21 ± 0.14,-0.987 ± 0.087
AACAAGCAAUAUUACGGUCU,-0.114 ± 0.037,0.456 ± 0.054
AACAAGCAAUAUUACGUAUU,-1.77 ± 0.079,-0.983 ± 0.092
AACAAGCAAUAUUACGUCGU,-2.18 ± 0.068,-0.677 ± 0.067
AACAAGCAAUAUUACGUUAC,-3.54 ± 0.11,-3.01 ± 0.18
AACCAGCAAUAUUACGAACC,-0.246 ± 0.13,0.00425 ± 0.19
AACCAGCAAUAUUACGACGU,-0.111 ± 0.046,0.409 ± 0.06
AACCAGCAAUAUUACGAGAA,-1.71 ± 0.14,-1.02 ± 0.13
AACCAGCAAUAUUACGCAAG,-2.54 ± 0.1,-1 ± 0.1
AACCAGCAAUAUUACGCACA,-0.335 ± 0.054,0.326 ± 0.072
AACCAGCAAUAUUACGCCUG,-1.8 ± 0.066,-0.745 ± 0.087
AACCAGCAAUAUUACGCGAA,-1.11 ± 0.06,-0.99 ± 0.076
AACCAGCAAUAUUACGCGCG,-0.385 ± 0.082,0.256 ± 0.11
AACCAGCAAUAUUACGCUAA,-1.36 ± 0.068,-0.61 ± 0.07
AACCAGCAAUAUUACGCUAC,-2.63 ± 0.14,-2.05 ± 0.13
AACCAGCAAUAUUACGCUAU,-2.11 ± 0.094,-0.398 ± 0.093
AACCAGCAAUAUUACGGCAC,-0.615 ± 0.055,-0.257 ± 0.079
AACCAGCAAUAUUACGGGGU,-3.73 ± 0.14,-2.88 ± 0.16

Sequence,self-splicing fitness (ln) (30 °C),self-splicing fitness (ln) (37 °C)
AACCAGCAAUAUUACGGGUU,-2.89 ± 0.078,-3.19 ± 0.13
AACCAGCAAUAUUACGGUCG,-0.366 ± 0.049,0.214 ± 0.07
AACCAGCAAUAUUACGUAAA,-1.13 ± 0.076,-0.76 ± 0.084
AACCAGCAAUAUUACGUCAC,-3.92 ± 0.13,-2.66 ± 0.13
AACCAGCAAUAUUACGUGCU,-3.52 ± 0.16,-1.94 ± 0.15
AACCAGCAAUAUUACGUUAC,-2.93 ± 0.14,-2.52 ± 0.17
AACGAGCAAUAUUACGACCA,-2.23 ± 0.18,-1.53 ± 0.19
AACGAGCAAUAUUACGACGA,-2.08 ± 0.17,-0.282 ± 0.14
AACGAGCAAUAUUACGAGGG,-3.03 ± 0.36,-2.35 ± 0.29
AACGAGCAAUAUUACGCACU,-1.23 ± 0.11,-0.611 ± 0.11
AACGAGCAAUAUUACGCCAU,-2.91 ± 0.27,-1.52 ± 0.27
AACGAGCAAUAUUACGCCUG,-3.77 ± 0.32,–
AACGAGCAAUAUUACGCGGG,-3.64 ± 0.42,-2.32 ± 0.22
AACGAGCAAUAUUACGCUCA,-1.83 ± 0.12,-0.666 ± 0.13
AACGAGCAAUAUUACGCUUC,-3.1 ± 0.25,-1.7 ± 0.3
AACGAGCAAUAUUACGCUUU,-3.9 ± 0.17,-2.31 ± 0.14
AACGAGCAAUAUUACGGACG,-2.19 ± 0.2,-1.05 ± 0.23
AACGAGCAAUAUUACGGACU,-1.88 ± 0.13,-0.603 ± 0.21
AACGAGCAAUAUUACGGGCA,-2.92 ± 0.24,-2.38 ± 0.24
AACGAGCAAUAUUACGGGCG,-3.07 ± 0.15,-1.11 ± 0.19
AACGAGCAAUAUUACGGGUG,-3.4 ± 0.17,-2.34 ± 0.2
AACGAGCAAUAUUACGGUCU,-2.03 ± 0.093,-0.898 ± 0.1
AACGAGCAAUAUUACGUCUG,-3.17 ± 0.2,-1.63 ± 0.16
AACGAGCAAUAUUACGUGAG,-3.58 ± 0.17,-0.98 ± 0.13
AACGAGCAAUAUUACGUGGC,-3.85 ± 0.3,-2.94 ± 0.27
